Results as given in IntAct's records for PubMed 15604664.

B1: Floral homeotic protein … (Arabidopsis thaliana (Mouse-ear cress)), P48007 (parent)
chain: MGRGKIEIKRIENANNRVVTFSKRRNGLVKKAKEITVLCDAKVALIIFASNGKMIDYCCPSMDLGAMLDQYQKLSGKKLWDAKHENLSNEIDRIKKENDSLQLELRHLKGEDIQSLNLKNLMAVEHAIEHGLDKVRDHQMEILISKRRNEKMMAEEQRQLTFQLQQQEMAIASNARGMMMRDHDGQFGYRVQPIQPNLQEKIMSLVID
partner: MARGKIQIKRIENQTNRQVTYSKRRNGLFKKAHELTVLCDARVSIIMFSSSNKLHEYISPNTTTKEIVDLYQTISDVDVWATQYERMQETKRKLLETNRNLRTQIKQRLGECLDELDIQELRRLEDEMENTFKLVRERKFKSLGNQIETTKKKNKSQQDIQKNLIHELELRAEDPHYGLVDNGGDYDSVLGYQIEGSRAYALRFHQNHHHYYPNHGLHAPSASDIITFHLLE
B2: Developmental protein … 3 (Arabidopsis thaliana (Mouse-ear cress)), O22456 (parent)
chain: MGRGRVELKRIENKINRQVTFAKRRNGLLKKAYELSVLCDAEVALIIFSNRGKLYEFCSSSSMLRTLERYQKCNYGAPEPNVPSREALAVELSSQQEYLKLKERYDALQRTQRNLLGEDLGPLSTKELESLERQLDSSLKQIRALRTQFMLDQLNDLQSKERMLTETNKTLRLRLADGYQMPLQLNPNQEEVDHYGRHHHQQQQHSQAFFQPLECEPILQIGYQGQQDGMGAGPSVNNYMLGWLPYDTNSI
partner: B1 chain
B3: Floral homeotic protein … (Arabidopsis thaliana (Mouse-ear cress)), P48007 (parent)
chain: B1 chain

Variants of: B1
Details: with ap3_arath AP3, P35632

| Variant | effect of a mutation on the interaction |
| --- | --- |
| MGRGKIEIKRIENANNRVVTFSKRRNGLVKKAKEITVLCDAKVALIIFASNGKMIDYCCPSMDLGAMLDQYQKLSGKKLWDAKHENLSNEIDRTKKENDSLQLELRHLKGEDIQSLNLKNLMAVEHAIEHGLDKVRDHQMEILISKRRNEKMMAEEQRQLTFQLQQQEMAIASNARGMMMRDHDGQFGYRVQPIQPNLQEKIMSLVID [I94T] | decreasing interaction |
| MGRGKIEIKRIENANNRVVTFSKRRNGLVKKAKEITVLCDAKVALIIFASNGKMIDYCCPSMDLGAMLDQYQKLSGKKLWDAKHENLSNEIDRIKKENDSLQLELRHLKGEDIQSLNLKNLMADEHAIEHGLDKVRDHQMEILISKRRNEKMMAEEQRQLTFQLQQQEMAIASNARGMMMRDHDGQFGYRVQPIQPNLQEKIMSLVID [V124D] | decreasing interaction |
| MGRGKIEIKRIENANNRVVTFSKRRNGLVKKAKEITVLCDAKVALIIFASNGKMIDYCCPSMDLGAMLDQYQKLSGKKLWDAKHENLSNEIDRIKKENDSLQLELRHLKGEDIQSRNLKNLMAVEHAIEHGLDKVRDHQMEILISKRRNEKMMAEEQRQLTFQLQQQEMAIASNARGMMMRDHDGQFGYRVQPIQPNLQEKIMSLVID [L116R] | decreasing interaction |
| MGRGKIEIKRIENANNRVVTFSKRRNGLVKKAKEITVLCDAKVALIIFASNGKMIDYCCPSMDLGAMLDQYQKLSGKKLWDAKHENLSNEIDRIKKEDDSLQLELRHLKGEDIQSLNLKNLMAVEHAIEHGLDKVRDHQMEILISKRRNEKMMAEEQRQLTFQLQQQEMAIASNARGMMMRDHDGQFGYRVQPIQPNLQEKIMSLVID [N98D] | decreasing interaction |
| MGRGKIEIKRIENANNRVVTFSKRRNGLVKKAKEITVLCDAKVALIIFASNGKMIDYCCPSMDLGAMLDQYQKLSGKKLWDAKHENLSNEIDRIKKENDSLQLELRHLKAEDIQSLNLKNLMAVEHAIEHGLDKVRDHQMEILISKRRNEKMMAEEQRQLTFQLQQQEMAIASNARGMMMRDHDGQFGYRVQPIQPNLQEKIMSLVID [G110A] | decreasing interaction |
| MGRGKIEIKRIENANNRVVTFSKRRNGLVKKAKEITVLCDAKVALIIFASNGKMIDYCCPSMDLGAMLDQYQKLSGKKLWDAKHENLSNETDRIKKENDSLQLELRHLKGEDIQSLNLKNLMAVEHAIEHGLDKVRDHQMEILISKRRNEKMMAEEQRQLTFQLQQQEMAIASNARGMMMRDHDGQFGYRVQPIQPNLQEKIMSLVID [I91T] | decreasing interaction |
| MGRGKIEIKRIENANNRVVTFSKRRNGLVKKAKEITVLCDAKVALIIFASNGKMIDYCCPSMDLGAMLDQYQKLSGKKLWDAKHENLSNEIDRIKKENDSLQLELRHSKGEDIQSLNLKNLMAVEHAIEHGLDKVRDHQMEILISKRRNEKMMAEEQRQLTFQLQQQEMAIASNARGMMMRDHDGQFGYRVQPIQPNLQEKIMSLVID [L108S] | decreasing interaction |

Next, values leading:

| effect of a mutation on the interaction | Variant |
| --- | --- |
| decreasing interaction | MGRGKIEIKRIENANNRVVTFSKRRNGLVKKAKEITVLCDAKVALIIFASNGKMIDYCCPSMDLGAMLDQYQKLSGKKLWDAKHENLSNEIDRIKKENDSLQLELRHLKGEDIQSLNLKNLMAVEHAIEHGLDKVRDHQMEILISKRRNEKMPAEEQRQLTFQLQQQEMAIASNARGMMMRDHDGQFGYRVQPIQPNLQEKIMSLVID [M153P] |
| decreasing interaction | MGRGKIEIKRIENANNRVVTFSKRRNGLVKKAKEITVLCDAKVALIIFASNGKMIDYCCPSMDLGAMLDQYQKLSGKKLWDAKHENLSNEIDRIKKENDSLQLELRHLKGEDIQSLNLKNLMAVEHPIEHGLDKVRDHQMEILISKRRNEKMMAEEQRQLTFQLQQQEMAIASNARGMMMRDHDGQFGYRVQPIQPNLQEKIMSLVID [A127P] |
| decreasing interaction | MGRGKIEIKRIENANNRVVTFSKRRNGLVKKAKEITVLCDAKVALIIFASNGKMIDYCCPSMDLGAMLDQYQKLSGKKLWDAKHENLSNEIDRIKKENDSLQLELRHLKGEDIQSLNLKNLMAVEHAIEHGLDKARDHQMEILISKRRNEKMMAEEQRQLTFQLQQQEMAIASNARGMMMRDHDGQFGYRVQPIQPNLQEKIMSLVID [V135A] |
| decreasing interaction | MGRGKIEIKRIENANNRVVTFSKRRNGLVKKAKEITVLCDAKVALIIFASNGKMIDYCCPSMDLGAMLDQYQKLSGKKLWDAKHENLSNEIDRIKKENDSLQLELRHLKGEDIQSLNLKNLMAVEHATEHGLDKVRDHQMEILISKRRNEKMMAEEQRQLTFQLQQQEMAIASNARGMMMRDHDGQFGYRVQPIQPNLQEKIMSLVID [I128T] |
| increasing interaction | MGRGKIEIKRIENANNRVVTFSKRRNGLVKKAKEITVLCDAKVALIIFASNGKMIDYCCPSMDLGAMLDQYQKLSGKKLWDAKHENLSNEIDRIKKENDSLQLELRHLKGEDIQSLNLKNLMAVEHAIEHGLDKVRDHQMEILISKRRNEKMMAEEQRQLTFQLQQPEMAIASNARGMMMRDHDGQFGYRVQPIQPNLQEKIMSLVID [Q167P] |

Variants of: B2
Details: with pist_arath PI, P48007

| effect of a mutation on the interaction | Variant |
| --- | --- |
| decreasing interaction | R146E |

Variants of: B3
Details: with sep3_arath SEP3, O22456

| Variant | effect of a mutation on the interaction |
| --- | --- |
| MGRGKIEIKRIENANNRVVTFSKRRNGLVKKAKEITVLCDAKVALIIFASNGKMIDYCCPSMDLGAMLDQYQKLSGKKLWDAKHENLSNEIDRIKKENDSLQLEPRHLKGEAIQSLNLKNLMAVGHAIEHGLDKVRDHQMEILISKRRNEKMMAEEQRQLTFQLQQQEMAIASNARGMMMRDHDGQFGYRVQPIQPNLQEKIMSLAID [L105P;D112A;E125G;V206A] | decreasing interaction |
| MGRGKIEIKRIENANNRVVTFSKRRNGLVKKAKEITVLCDAKVALIIFASNGKMIDYCCPSMDLGAMLDQYQKLSGKKLWDAKHENLSSEIDRIKKENDSLQLELRHLKGEDIQSLNLKNLMAVEHAIEHGLDKVRDHQMEILISKRRNEKVMAEEQRQLTFQLQQQEMAIASNARGMMMRDHDGQFGYRVQPIQPNLQEKIMSLVID [N89S;M152V] | decreasing interaction |
| MGRGKIEIKRIENANNRVVTFSKRRNGLVKKAKEITVLCDAKVALIIFASNGKMIDYCCPSMDLGAMLDQYQKLSGKKLWDAKHENLSNEIDRIKKENDSLQLELRHLKGEDIQSLNPKNLMAVEHAIEHGLDKVRDHQMEILISKRRDEKMMAEEQRQPTFQLQQQEMAIASNARGMMMRDHDGQFGYRVQPIQPNLQEKIMSLVID [L118P;N149D;L160P] | decreasing interaction |
| MGRGKIEIKRIENANNRVVTFSKRRNGLVKKAKEITVLCDAKVALIIFASNGKMIDYCCPSMDLGAMLDQYQKLSGKKLWDAKHENLSNEIDRIKKENGSLQLELRHLKGEDIQSLNLKNLMAVEHAIEHGLDKVRDHQMEILISKRRNEKMMAEEQRQLTFQLQQQEMAIASNARGMMMRDHDGQFGYRVQPIQPNLGEKIMSLVID [D99G;Q199G] | decreasing interaction |
| MGRGKIEIKRIENANNRVVTFSKRRNGLVKKAKEITVLCDAKVALIIFASNGKMIDYCCPSMDLGAMLDQYQKLSGKKLWDAKHENLSNEIDRIKKENDSLQLELRHLKGEDIQSLNLKNLKAVEHAIEHGLDKVRDHQMKILISKRRNEKMMAEEQRQLTFQLQQQEMAIASNARGVMMRDHDGQFGYRVQPIQPNLQEKIMSLVID [M122K;E141K;M178V] | decreasing interaction |
| MGRGKIEIKRIENANNRVVTFSKRRNGLVKKAKEITVLCDAKVALIIFASNGKMIDYCCPSMDLGAMLDQYQKLSGKKLWDAKHENLSNEIDRIKKENDSLQLELRHLKGEDIQSLNLKNPMAVEHAIEHGLDKVRDHQMEILISKRRNEKMMAEEQRQLTFQLQQQEMAIASNARGMMMRDHDGQFGYRVQPIQPNLQEKIMSLVID [L121P] | decreasing interaction |
| MGRGKIEIKRIENANNRVVTFSKRRNGLVKKAKEITVLCDAKVALIIFASNGKMIDYCCPSMDLGAMLDQYQKLSGKKLWDAKHENLSNEIDRIKKENDSLQLELRHLKGEDIQSLNLKNLMADEHAIEHGLDKVRDHQMEILISKRRNEKMMAEEQRQLTFQLQQQEMAIASNARGMMMRDHDGQFGYRVQPIQPNLQEKIMSLVID [V124D] | decreasing interaction |

Further lines, results first:

| effect of a mutation on the interaction | Variant |
| --- | --- |
| decreasing interaction | MGRGKIEIKRIENANNRVVTFSKRRNGLVKKAKEITVLCDAKVALIIFASNGKMIDYCCPSMDLGAMLDQYQKLSGKKLWDAKHENLSNEIDRIKKENDSLQLELRHLKGEDIQSLNLKNLMAVGHAIEHGLDKVRDHQMEILISKRRNEKMMAEEQRQLTFQLQQQEMAIASNARGMMMRDHDGQFGYRVQPIQPNLQEKIMSLVID [E125G] |
| decreasing interaction | MGRGKIEIKRIENANNRVVTFSKRRNGLVKKAKEITVLCDAKVALIIFASNGKMIDYCCPSMDLGAMLDQYQKLSGKKLWDAKHENLSNEIDRIKKENDSLQLELRHLKGEDIQSLNLKNLMAVEHAIEHGLDKVRDHQMEIPISKRRNEKMMAEEQRQLTFQLQQQEMAIASNARGMMMRDHDGQFGYRVQPIQPNLQEKIMSLVID [L143P] |
| decreasing interaction | MGRGKIEIKRIENANNRVVTFSKRRNGLVKKAKEITVLCDAKVALIIFASNGKMIDYCCPSMDLGAMLDQYQKLSGKKLWDAKHENLSNEIDRIKKENDSLQLELRHLKGEDIQSLNLKNLMAVEHAIEHGLDKVRDHQMEFLISKRRNEKMMAEEQRQLTFQLQQQEMAIASNARGMMMRDHDGQFGYRVQPIQPNLQEKIMSLVID [I142F] |
| decreasing interaction | MGRGKIEIKRIENANNRVVTFSKRRNGLVKKAKEITVLCDAKVALIIFASNGKMIDYCCPSMDLGAMLDQYQKLSGKKLWDAKHENLSNEIDRIKKENDSLQLELRHLKGEDIQSLNLKNLMAVEHPIEHGLDKVRDHQMEILISKRRNEKMMAEEQRQLTFQLQQQEMAIASNARGMMMRDHDGQFGYRVQPIQPNLQEKIMSLVID [A127P] |
| decreasing interaction | MGRGKIEIKRIENANNRVVTFSKRRNGLVKKAKEITVLCDAKVALIIFASNGKMIDYCCPSMDLGAMLDQYQKLSGKKLWDAKHENLSNEIDRIKKENDSLQLELRHLKGEDIQSLNLKNLMAVEHAIEHGLDKVRDHQMEILISKRRNEKMMAEEQRQLTFQLQQQEMAIASNARGMMMRDHDGQFGYRVQLIQPNLQEKIMSLVID [P193L] |
| decreasing interaction | MGRGKIEIKRIENANNRVVTFSKRRNGLVKKAKEITVLCDAKVALIIFASNGKMIDYCCPSMDLGAMLDQYQKLSGKKLWDAKHENLSNEIDRIKKENDSLQLELRHLKGEDIQSLNLKNLMAVEHAIDHGLDKVRDHQMEILISKRRNEKMMAEEQRQLTFQLQQQEMAIASNARGMMMRDHDGQFGYRVQPIQPNLQEKIMSLVID [E129D] |
| decreasing interaction | MGRGKIEIKRIENANNRVVTFSKRRNGLVKKAKEITVLCDAKVALIIFASNGKMIDYCCPSMDLGAMLDQYQKLSGKKLWDAKHENLSNEIDRIKKENDSLQLELRHLKGEDIQSLNLKNLMAVEHAIEHGLDKVRDHQMEILISKRRNEKMMAEEQRQLTLQLQQQEMAIASNARGMMMRDHDGQFGYRVQPIQPNLQEKITSLVID [F162L;M203T] |
